T1: RGL1 (Arabidopsis DELLA protein), yeast two-hybrid prey in pGADT7 AD vector (Arabidopsis, UniProt Q9C8Y3 1-511)
T1 construct: also called AtDELLA
T1 sequence (looked up): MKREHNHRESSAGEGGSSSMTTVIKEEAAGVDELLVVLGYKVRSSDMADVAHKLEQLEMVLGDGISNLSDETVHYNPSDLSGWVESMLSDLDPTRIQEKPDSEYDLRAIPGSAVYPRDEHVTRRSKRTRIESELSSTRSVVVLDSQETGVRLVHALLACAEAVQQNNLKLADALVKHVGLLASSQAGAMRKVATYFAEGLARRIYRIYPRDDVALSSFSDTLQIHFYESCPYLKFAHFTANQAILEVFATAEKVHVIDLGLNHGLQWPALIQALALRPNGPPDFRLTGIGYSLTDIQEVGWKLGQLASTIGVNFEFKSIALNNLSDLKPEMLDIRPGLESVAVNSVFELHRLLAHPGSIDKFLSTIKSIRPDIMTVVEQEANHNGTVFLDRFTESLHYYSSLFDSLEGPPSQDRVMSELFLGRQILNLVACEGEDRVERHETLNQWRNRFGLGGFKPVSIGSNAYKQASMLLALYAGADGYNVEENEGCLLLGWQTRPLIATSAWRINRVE

T2: RGL3 (Arabidopsis DELLA protein), yeast two-hybrid prey in pGADT7 AD vector (Arabidopsis, UniProt Q9LF53 1-523)
T2 construct: also called AtDELLA
T2 sequence (looked up): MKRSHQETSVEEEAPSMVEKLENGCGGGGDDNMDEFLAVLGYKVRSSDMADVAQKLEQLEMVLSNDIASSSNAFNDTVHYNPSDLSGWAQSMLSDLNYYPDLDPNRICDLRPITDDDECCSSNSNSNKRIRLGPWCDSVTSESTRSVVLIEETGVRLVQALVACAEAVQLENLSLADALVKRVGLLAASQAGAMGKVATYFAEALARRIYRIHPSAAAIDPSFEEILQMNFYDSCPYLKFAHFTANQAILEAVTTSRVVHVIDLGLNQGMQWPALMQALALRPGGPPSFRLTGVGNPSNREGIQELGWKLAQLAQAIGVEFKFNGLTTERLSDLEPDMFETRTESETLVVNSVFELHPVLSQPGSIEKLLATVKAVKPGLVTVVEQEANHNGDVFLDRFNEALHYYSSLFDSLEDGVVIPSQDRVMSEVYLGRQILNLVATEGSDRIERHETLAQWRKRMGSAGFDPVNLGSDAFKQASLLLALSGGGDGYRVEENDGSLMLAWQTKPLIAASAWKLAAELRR

T3: GAI (Arabidopsis DELLA protein), yeast two-hybrid prey in pGADT7 AD vector (Arabidopsis, UniProt Q9LQT8 1-533)
T3 construct: also called AtDELLA
T3 sequence (looked up): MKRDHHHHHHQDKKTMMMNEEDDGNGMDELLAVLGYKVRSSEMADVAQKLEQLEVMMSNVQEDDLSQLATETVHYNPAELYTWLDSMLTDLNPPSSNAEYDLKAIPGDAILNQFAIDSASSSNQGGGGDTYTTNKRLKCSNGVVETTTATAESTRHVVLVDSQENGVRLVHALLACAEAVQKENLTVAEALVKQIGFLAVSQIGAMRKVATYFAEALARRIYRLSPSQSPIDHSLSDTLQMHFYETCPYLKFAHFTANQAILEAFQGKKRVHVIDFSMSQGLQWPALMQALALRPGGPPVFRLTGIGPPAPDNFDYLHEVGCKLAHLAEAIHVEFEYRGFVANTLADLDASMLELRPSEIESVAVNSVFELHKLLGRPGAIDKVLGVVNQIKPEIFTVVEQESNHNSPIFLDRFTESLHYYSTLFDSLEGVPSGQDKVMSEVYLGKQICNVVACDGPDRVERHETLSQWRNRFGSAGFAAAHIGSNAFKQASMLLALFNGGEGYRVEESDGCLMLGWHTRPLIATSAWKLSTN

B1: AtGID1a (At3g05120), yeast two-hybrid bait in pGBKT7 DNA-BD vector (receptor, not shown: small tags and cut ends)
chain: MAASDEVNLIESRTVVPLNTWVLISNFKVAYNILRRPDGTFNRHLAEYLDRKVTANANPVDGVFSFDVLIDRRINLLSRVYRPAYADQEQPPSILDLEKPVDGDIVPVILFFHGGSFAHSSANSAIYDTLCRRLVGLCKCVVVSVNYRRAPENPYPCAYDDGWIALNWVNSRSWLKSKKDSKVHIFLAGDSSGGNIAHNVALRAGESGIDVLGNILLNPMFGGNERTESEKSLDGKYFVTVRDRDWYWKAFLPEGEDREHPACNPFSPRGKSLEGVSFPKSLVVVAGLDLIRDWQLAYAEGLKKAGQEVKLMHLEKATVGFYLLPNNNHFHNVMDEISAFVNAEC
notes: Bait fusion for the Y2H assays (BD Matchmaker Two-hybrid System 3); also called Arabidopsis GID1
B2: AtGID1b (At3g63010), yeast two-hybrid bait in pGBKT7 DNA-BD vector (receptor, not shown: small tags and cut ends)
chain: MAGGNEVNLNECKRIVPLNTWVLISNFKLAYKVLRRPDGSFNRDLAEFLDRKVPANSFPLDGVFSFDHVDSTTNLLTRIYQPASLLHQTRHGTLELTKPLSTTEIVPVLIFFHGGSFTHSSANSAIYDTFCRRLVTICGVVVVSVDYRRSPEHRYPCAYDDGWNALNWVKSRVWLQSGKDSNVYVYLAGDSSGGNIAHNVAVRATNEGVKVLGNILLHPMFGGQERTQSEKTLDGKYFVTIQDRDWYWRAYLPEGEDRDHPACNPFGPRGQSLKGVNFPKSLVVVAGLDLVQDWQLAYVDGLKKTGLEVNLLYLKQATIGFYFLPNNDHFHCLMEELNKFVHSIEDSQSKSSPVLLTP
notes: Bait fusion for the Y2H assays; also called Arabidopsis GID1

Columns and labels:
[1] = target: T1, RGL1 (Arabidopsis DELLA protein), yeast …; test: yeast two-hybrid system
Experimental: (§1) Arabidopsis has five DELLA proteins (RGA, GAI, RGL1, RGL2, and RGL3; collectively designated AtDELLA; Fleet, C. M., and Sun, T.-P. (2005) Curr. Opin. Plant Biol., 8, 77-85; Dill, A., and Sun, T. (2001) Genetics, 159, 777-785); therefore, there are 15 possible combinations of GID1/DELLA proteins. To verify the positive interactions between AtGID1-AtDELLA, two experiments were conducted using the yeast two hybrid (Y2H) system. In the first experiment (Assay A), a viable colony assay using a defined medium in which only positive clones would survive was carried out. In the second experiment (Assay B), β-galactosidase activity was measured, as reporter gene product of AtGID1-AtDELLA interactions.
(§2) BD Matchmaker Two-hybrid System 3 (Clontech, Palo Alto, Calif., USA; now part of Takara Bio) was used in the Y2H experiments. After confirming the PCR products of the AtGID1 genes by sequencing, PCR products were cloned into pGBKT7 DNA-BD shuttle vector to construct bait plasmids. Likewise, the entire coding region of each AtDELLA gene (GAI including EcoRI and XhoI sites; RGA including BamHI and XhoI sites; RGL1 including SmaI and SacI sites; RGL2 including SmaI and ClaI sites; RGL3 including SmaI and XhoI sites on the ends) was cloned into pGADT7 AD vector. The S. cerevisiae AH109 (MATa) strain or Y187 (MATα) strain was used, and DNA-BD and AD vector cassettes were used as negative controls. The details of the method used for the yeast assay are as described in the manufacturer's instructions (Yeast Protocols Handbook #PT3024-1; http://www.clontech.com/). Experiments were carried out four times independently. Similar results were obtained each time.

[2] = target: T2, RGL3 (Arabidopsis DELLA protein), yeast …; test: yeast two-hybrid system
Experimental: as §1, §2

[3] = target: T3, GAI (Arabidopsis DELLA protein), yeast …; test: yeast two-hybrid without GA (FIG. 11); member GAI named in the legend of FIG. 11
Experimental: as §1
BD Matchmaker Two-hybrid System 3 (Clontech, Palo Alto, Calif., USA; now part of Takara Bio) was used in the Y2H experiments. After confirming the PCR products of the AtGID1 genes by sequencing, PCR products were cloned into pGBKT7 DNA-BD shuttle vector to construct bait plasmids. […]
Thus, GA₄ (10⁻⁵ M) was used and added to the medium. […] As described above, all AtGID1-AtDELLA interactions were detected in a GA-dependent manner; however, interactions between AtGID1b and some AtDELLAs were detected, albeit weakly, in the absence of GA (FIG. 11).

binding result [1]	binding result [2]	binding result [3]	Binder
binds	binds		B1
		binds	B2

— patent US20090031441A1 (NATIONAL UNIVERSITY CORPORATION NAGOYA UNIVERSITY, published 2009)
